Experimental data as given in the DeepSol protein solubility set.

Test: soluble on expression in E. coli; label from the status in PepcDB or PDB records

Sequence | soluble on expression in E. coli
SLIFGKIDYINLLPLHIYLKKYPLPNGYKASMEYKKGVPSKLNKDLFYRRIDAAIISSIESARKKYKNLDLGICANKRVLSVLVEKNTSNAKDPSSATSNALAKVLKQDGKVIIGDKALKLYLKDPSKYIDLCAKWHEKTGLPFVFARFSCVQKKALYKQILKKFPKTKIKIPYYILQKYAKTRDLDVKDVRYYLDEVIYHKISTKEKTALKRFVKACKALNLA | soluble
MYEGESVVQLAKRMIEHLLKWGVTDAFTDKQIYTILEKAESTLKPLPAMLQVEHPITIVGDIHGQLDALIRYFDAVGYPPKVQFLFLGDYVDRGAKSFEVSLLLFCYKIRYPHLNVFNELPLCARVGQRILCMHGGISQNCNSWESFKALKKPNTPLTCDEGLQVDLMWADPTQDKCNTFAMNKQRAISVVFGQKGLDDFLKKLGLSLIVRAHEVSQEGFNFLFNKKCVTVFSAPYYCGNDTNCGAIMHVSDSYELSFTVLRPRMIATPENFEIVKLMENNYKGLMVASPDPNRGRHLQSADVPQPTPPSVQLVPPVTKPVEIKKQ | not soluble
MSLRLKILIKLSGAGMSADSSEPFSNQFLETVIAQLKQLVPNYQIGIVIGGGNIMRGKSCSDYNITEIAGHHLGIMATVINGAFLKAKFDSHKLNSTLLSAVSCPSLATHIVSQATIDDAFKNHDIVIFAGGTGNPYFSTDTAVALRATQMQADIILIGKNGVDGVYTADPKKDKHAKFLASLTYAEAIKNDLQIMDITAFTMCKENNLKVIIFNINAEHAIIKALSKQGKYTLIEKEGHHHHHH | soluble
MSIFNKDALSSFFGLSGEEDDYYDNYEEYEERKAVNEPPRRAARPKPQRPVQQQESYSQPAYTQQSEPVVEKPSARYRSAEAHQERDTQQAAYTEKKVVSMRSSNQSATTNTRRAQESTANAKTHKITIIEPRVYSEAMSIAKHLFAEEAVLVNFTLVEEDQARRIVDFLTGTVYALDGDIQRVGNEIFLCTPANMEIDSATAQSLANKQFFDFLEHHHHHH | not soluble
MTTARDIMNAGVTCVGEHETLTAAAQYMREHDIGALPICGDDDRLHGMLTDRDIVIKGLAAGLDPNTATAGELARDSIYYVDANASIQEMLNVMEEHQVRRVPVISEHRLVGIVTEADIARHLPEHAIVQFVKAICSPMALAS | soluble
MRWKLLFALLAALLLAACSQSSERVVIGSKPFNEQYILANMIAILLEENGYKAEVKEGLGGTLVNYEALKRNDIQLYVEYTGTAYNVILRKQPPELWDQQYIFDEVKKGLLEADGVVVAAKLGFRDDYALAVRADWAEENGVEKISDLAEFADQLVFGSDPEFASRPDGLPQIKKVYGFEFKEVKQMEPTLMYEAIKNKQVDVIPAYTTDSRVDLFNLKILEDDKGALPPYDAIIIVNGNTAKDEKLISVLKLLEDRIDTDTMRALNYQYDVEKKDAREIAMSFLKEQGLVK | not soluble
MNNSLIVRQLGLQDYQEIWHKMQDFTDTRNAETQDEIWLVQHYPVFTQGQAGKPEHLLQRSEIPVVQSVRGGQITYHAPGQQVMYVLIDIKRHKNLNVRQLVTALEQTVVKTLAEYGIESYPKPDAPGVYVDGKKICSLGLRIRRGCSFHGLALNINMDLNPFHYINPCGYAGLEMCQLADFVNQDKADCDNVSAKLIKHFANLLGYNITTLLEHHHHHH | soluble
MKIGVDAGGTLIKIVQEKNGERTYSTRLTTEIEEVIQWLNQQDCNNINLTGGQAAMINEQLNCESRVFVEFDAAAKGLEILLEEQGHFLDDYIFTNVGTGTSLHFSNGKAQKRVGGIGTGGGMIQGLGYLLTGISNYKQLTDTAQNGNRDIIDLKVKHIYKDSEPPISGDLTAANFGNVLHHLDESFTDADKLASVIAVVGEVITTMSITVAREHNTKNVAYIGSSFHNNDLLKDVVKDYTVLRGCEPYYIEHGAFSGALGSIHLLEHHHHHH | not soluble
MRNTVNILGIPIDNVSMDEALNVVKGFLSEDRVHTVYTPNSEIMMAAQRDPELKKILCEADLLVPDGAGVVLASKINGCPLKERVAGFDLTNMLFSDEAAKAVNFFFLGGKPGVAEEAYKNLLDRKININVVGIRNGYFTKDEEEEIIRQINDSNTDVLLVALGAPKQEKWIHANKEKLKVKVCIGVGGTFDVLAGRAKRAPVFFQKHGLEWLYRLYKEPWRFVRMLDLPRFILRVIANKIRPEKPERA | soluble
AHHHHHHGSFTGKVLIPVKVLKKFENWNEGDMILLEDWKAKELWESGVVEIIDEADKVIGEIDRVLSEEKKNLPLTPIPEGLYEKAEFYIYYLEKYIQEKVDNIETIQTKVTKLANLKKKYKTLKEIRFKKILEAVRLRPNSMEILARLSPAEKRIYLEISKIRREWIGD | not soluble
MRSKFFSFFTRASRPMKAIPPKIWFETQLKGSGLDKKFQIDELIETQSSVRVFANKKYLPDTETINEALTKVTAVNVSGDKSGYFQNGLPFPNEAGYFEKIPVGHPELLSPIERLTGSKKIVSSHSLVTASGGYPLTNPLLPYRKPIRVSIFSLAGPSFENNYLHYRLFLLDSVQKIIDSPLFSHLHDGLPIQFDEAKKELGEYDTNKLMARIRLGFPYLARFSSGGFYPSFSKSNAIIFLSEAYFRYQLEDVSLLLASVNQTGKETGKAALLKATAVGMGFFAKIDCGYDIQHIIFPYYLRAYKKLLSEHKFPWIAKIEFPIFNEIQQEQFDSIFEDYDGPTKVYRSTRDVLEFREEEIEKYLPAAINPSDAFALTGNEWGYGSVESMIGNNSSIRFDQVHHMNPLILDPSHHVEAQINKDHGVELTVNPRPQSSSSIKL | not soluble
MSLDDSYRIRHIVVKDEEEAREVLKELKGGSSFEAVAAERSTDRYTSPYGGDLGFVTEASDNIPSAYIEEAKTLKEDEWSQEPIKVSNGYAIIQLKEKLKARTFSFDEVKDQIRRQIAMDQLGDKATVKTLWKEADVSWFYGEKSTKEGHHHHHH | soluble
MGSDKIHHHHHHMVELKAPLTTLWRGKDAFEEVKTLQGEVFRELETRRTLRFELDGKSYFLKWHKGTSLKEIVKNLISLRMPVLGADREWHAIHRLHELGVDTMHGVGFGEKGVNPLTRTSFIITEDLTPTISLEDYCADWAVNPPDAQVKWMIIKRVATMVRKMHAGGINHRDCYICHFLLHLPFTGREEDLKISVIDLHRAQIRQHVPLRWRDKDLIGLYFSSMNIGLTQRDIFRFMREYFSLPLREILQKESGLIHQADVKAARIKERTIRKNL | not soluble
NSFFKTGWKRFYLKWYGQDHPSAQALCPYTTELLKQFPNIKAAMFTALPPGSRLVRHRDPFAGSVRYHLGLITPNDDRCYIDVDGQQYSWRDGEAVIFDETYLHYAENTTDQNRIILFCDVERPMWFWPARVVNRIVSRVLVGAANSPN | not soluble
MYEWLNALPKAELHLHLEGTLEPELLFALAERNRIALPWNDVETLRKAYAFNNLQEFLDLYYAGADVLRTEQDFYDLTWAYLQKCKAQNVVHVEPFFDPQTHTDRGIPFEVVLAGIRAALRDGEKLLGIRHGLILSFLRHLSEEQAQKTLDQALPFRDAFIAVGLDSSEVGHPPSKFQRVFDRARSEGFLTVAHAGEEGPPEYIWEALDLLKVERIDHGVRAFEDERLMRRLIDEQIPLTVCPLSNTKLCVFDDMSQHTILDMLERGVKVTVNSDDPAYFGGYVTENFHALQQSLGMTEEQARRLAQNSLDARLVK | not soluble
MGSDKIHHHHHHMKAANLAPCLMAMLLCTACEQLPIARKAPPPPPPATTAAKPAEQPRPTPIAAHDISLAGTCRRTEDDGFREDAVMRVVSNDVKSLKWKLWVSKRGTCQFDLADFKQVQKTPHIVLEATDGTQCKLLIWQDPRRVTLAHANCQQRCTPGIYEQAWPVLFNPRNGDCAEIR | not soluble
MAAMRKALPRRLVGLASLRAVSTSSMGTLPKRVKIVEVGPRDGLQNEKNIVSTPVKIKLIDMLSEAGLSVIETTSFVSPKWVPQMGDHTEVLKGIQKFPGINYPVLTPNLKGFEAAVAAGAKEVVIFGAASELFTKKNINCSIEESFQRFDAILKAAQSANISVRGYVSCALGCPYEGKISPAKVAEVTKKFYSMGCYEISLGDTIGVGTPGIMKDMLSAVMQEVPLAALAVHCHDTYGQALTNTLMALQMGVSVVDSSVAGLGGCPYAQGASGNLATEDLVYMLEGLGIHTGVNLQKLLEAGNFICQALNRKTSSKVAQATCKL | soluble
MHPIETPDKTFHDGDGVSELGTILPAWWLNQVQSELLAVLTAAGIQPDKSQPNQLLAALNRLAVVITGDQTVNGQKTFTAQTQFQSGIHLSANQTNWNGGHKAYIGADADNAHIVFGDDTLRLHGANNRISYNNHDIFHKANKPRFAEDIQGKPNTLSGYGIGNFKVETFRGDLNTLKTDGIYSLPTAVGSSNLPVENTACHIQVIAGTKHGWCRQLGYPAYTSDVYERHQTSSANDNWSAWKKLNSDGIPVGAIVSFPKAVQNPAGYLKANGTTFAQNTFPDLYRALGNSNRLPDLSRTDIGITAWFPSDQIPTGWLAFDDIRTRVTETAYPELYRLLTGKYGSIQNVPQAEDRFIRNAGNSLAVGTKQEDEIKRHVHKVFSHWTNHTDAAALGYEDRNERQRSALVSTWTDENLNDNGFLTPRSDSKMATGGDENRPKALVLKLCIKAADTLGEAVFWIKSHGETINAGALDAGTLAQGLQDKADRDHTHTAAQIQGLDEKISTAVAAQFTRQTIGGVDIVRFPDGTMIQTGSYRFTRSGGPIENEVVFPVAFADGNVKCFVSERHSERVTGDRRQHNWLFIRAKNHAAAIITNWYEGSCDWMAIGKAASGNAASSPIGPEIPETNEEPQRESGRTSTGPRNRRRRDGLLEALQD | not soluble
SNAMSKRVLMVVTNHTTITDDHKTGLWLEEFAVPYLVFQEKGYDVKVASIQGGEVPLDPRSINEKDPSWAEAEAALKHTARLSKDDAHGFDAIFLPGGHGTMFDFPDNETLQYVLQQFAEDGRIIAAVCHGPSGLVNATYKDGTPIVKGKTVTSFTDEEEREVGLDVHMPFLLESTLRLRGANFVRGGKWTDFSVRDGNLITGQNPQSSRSTAEKVVAALEERE | soluble
MKLLLHICCGPCAVYPVNVLREEGIYFEGLFYNPNIHPYDEFIRRKENVKKLSEIKNVPVKYMDDFSQEIWEKLGEDNEKRCNMCYALRIDKVAGYAKENGFDAFTTTLLVSPYQKHELIVELSKRAGEKYGIEFFYKDFRPGFRQGQQEAKELGLYRQKYCGCIISYREAEKLKSERKSK | soluble
MGSDKIHHHHHHMKGGTEPVETSKMEKAAALLGGMIDLPTIPAVAIQVLSLLDEPEVDVDDVAELVLTDQVMAARVLKMVNSPLYRPATEITSLKGALVYLGLRHIREFILTCSIIQCSEGKDGVLGVKPFWEHSFGVGIVARLIAEKVGYHDTEKAYIGGIIHDIGEVFLSYYMRDEFQKIVDSISDKPHKLVEAEEEFLGTTHCEIGLCIARAWRFPDDYCEVIAHHHAPQEAKNAPRLTAIVNLADLFCNVRQLDYGGKAWVSFSLADEPAWGMLQGPGSRLSELDIERFCYELDDRVEEISELVGNIFKNG | not soluble
MGSDKIHHHHHHMGYAMRLALIDGEHYPDVNRWALEKLKVDCAVFVGGMEKIGSIRDVERTLSIKLYYDEDIFKALERAIEENEIREVIDLSDEPVLTPEIRFRIASFLLKRGITYIGADFEFKPKEWIKIDVPSINIIGTGKRIGKTAIGGFVGRTLKEEYKVVIVTMGRGGPESPEVIRGDLMEITPEFLVEVSEKGRHAASDHFEDALTAGVATVGCRRCGGGLAGFTFLDVLQKGIEVAKSLNPEIIVFEGSGASFANVLSEGFITVVSALQGKEIKMYLYPLRISLGDLIVVTMADEVKDPGKISSLIKEINPDADIHLTRFSPRLIGNVEGKAVVVTTSTNSAKRVTKELEDRGIDVVGFSGNLANRVKLREELKKVSYDTLIVELKAGAVDVAIKSALRSGKRIVFLDYEPKNIDDKDLRESVKELARRIVNDKGHRKGR | not soluble
